Experiments:
[1] = tested on: 4T1.2 mammary tumor cells; test: MTT viability assay; type: cell-based, mouse
Description: (§1) In vitro assays. Cellular viability was examined using an MTT assay (Invitrogen, Carlsbad, CA, USA) with the procedure previously described, as well as an EdU assay with a fluorescence-based cell proliferation kit (Thermo-Fisher, Waltham, MA, USA). The recombinant proteins employed included Filamin A, Pkm, Pdia3, Tpm4, Anxa2, Eef1a1, Cts1, Nme2, Dcn, Calr, Aldoa, Calm1, Tpm3, Ppib, Myh9, Ywhae, Hspa5, Hsp90aa1 (MBS962910, MBS8249600, MBS2010131, MBS145304, MBS2009095, MBS2033168, MBS143355, MBS145412, MBS2557309, MBS2009125, MBS8248528, MBS2018713, MBS144696, MBS2009092, MBS717396, MBS143242, MBS806904, MBS142709; MyBioSource, San Diego, CA, USA), Actin Gamma 1, Actn4, Hspa8, Vimentin (H00000071-P01, H00000081-P01, NBP1-30278, NBP2-35139; Novus, Littleton, CO, USA), and Hsp90ab1 (OPCA05157; Aviva system biology, San Diego, CA, USA). A TRANSWELL® chamber assay was conducted to detect invasive cellular motility, and a wound-healing scratch assay was utilized to evaluate 2-dimensional migratory behavior. The overexpression of Akt, Lrp5, β-catenin, Snail, Calr, and Ppib was conducted by transfecting plasmids (#10841, #115907, #31785, #31697, #51161, #36123; Addgene, Cambridge, MA, USA). […]

[2] = tested on: EO771 cells; test: Western blot of proteins in treated tumor cells; type: cell-based, mouse
Method: Western blot analysis and mass spectrometry. Western blot analysis was conducted using known procedures. Antibodies were used against ANXA1, β-catenin, caspase 3, Lrp5, Lrp6, Runx2, Sclerostin, Snail, TGFβ, NFATc1, cathepsin K (Cell Signaling, Danvers, MA, USA), DMP1, ANXA6, CXCL5 (Abcam, Cambridge, MA, USA), M-CSF, MMP9, OPN, TPM4 (Santa Cruz, Dallas, TX, USA), WISP1 (R&D systems, Minneapolis, MN, USA), β-actin (Sigma, Saint Louis, MO, USA), LIMA1, Trail (Novus, Centennial, CO, USA), p53 and CXCL1 (Invitrogen, Carlsbad, California, USA), and DSP (ProteinTech, Rosemont, IL, USA). The expression levels of Sclerostin and Lrp5 in CM were detected by ELISA (My BioSource, San Diego, CA, USA). Proteins from A5 osteocyte CM, Y4 osteocyte CM, and osteoclast control CM (RAW264.7 cells) were analyzed by the HF Hybrid Quadrupole Orbitrap mass spectrometry. Among 549 identified proteins, 49 proteins presented higher expression levels in A5 CM than Y4 CM and control CM. Among them, 11 proteins (p53; SPARC=osteonectin; TPM1, TPM4=tropomyosin 1 & 4; ANXA1, ANXA6=annexin A1 & A6; FMOD=fibromodulin; OGN=osteoglycin; DSP=desmoplakin; AHNAK=desmoyokin; and LIMA1=[…] domain actin-binding protein 1) were identified as potential tumor suppressors.
(§2) Western blot analysis and protein array analysis. Western blot analysis was conducted using the procedure previously described. Antibodies against Lrp5, Runx2, Snail, TGFβ, sclerostin, Calr, p-eIF2α, eIF2α (Cell Signaling, Danvers, MA, USA), LIF, Trail (Novus Biologicals, Centennial, CO, USA), MMP9, NFATc1, cathepsin K (Santa Cruz Biotechnology, Dallas, TX, USA), p53, CXCL2, Ppib (Invitrogen, Carlsbad, CA, USA), Hsp90ab1 (Abcam, Cambridge, UK), and β-actin (Sigma, Saint Louis, MO, USA) were used. A proteome profiler mouse XL cytokine array kit (R&D Systems, Minneapolis, MN, USA) was also employed, and the expression of 111 cytokines and chemokines in MSC-derived CM was determined.
Spheroid assay, plasmid transfection, and Western blot analysis. […]

[3] = tested on: 4T1.2 mammary tumor cells; test: EdU proliferation assay; type: cell-based, mouse
Method: EdU assay. Approximately 2,000 cells were seeded in 96-well plates on day 1. CM was added on day 2 and cellular proliferation was examined using a fluorescence-based cell proliferation kit (CLICK-IT™ EDU ALEXA FLUOR™ 488 Imaging Kit; Thermo-Fisher, Waltham, MA, USA) on day 4. After fluorescent labeling, the number of fluorescently labeled cells was counted and the ratio to the total number of cells was determined.
as §1, with “USA).” for “USA). A TRANSWELL® chamber assay was conducted to detect invasive cellular motility, and a wound-healing scratch assay was utilized to evaluate 2-dimensional migratory behavior. The overexpression of Akt, Lrp5, β-catenin, Snail, Calr, and Ppib was conducted by transfecting plasmids (#10841, #115907, #31785, #31697, #51161, #36123; Addgene, Cambridge, MA, USA).”

[4] = tested on: 4T1.2 mammary tumor cells; test: TRANSWELL invasion assay; type: cell-based, mouse
Description: as §1

[5] = tested on: 4T1.2 cells; test: Western blot of proteins in treated tumor cells; type: cell-based, mouse
Method: as §2

[6] = tested on: tumor cells (MDA-MB-231, 4T1.2, EO771) vs non-tumor cells (MSCs, MLO-A5 osteocytes); test: MTT-based tumor selectivity (MSC CMs, Calr, Ppib); type: cell-based; conditions: (reduction in MTT viability of tumor cells)/(reduction in non-tumor cells)
Method: Tumor-selective inhibition by MSC CMs and Calr. […] The inhibitory ratio was defined sing MTT-based viability as (reduction in MTT-based viability of tumor cells)/(reduction in MTT-based viability of non-tumor cells). […] Using three tumor cells (MDA-MB-231, 4T1.2, and EO771) and two non-tumor cells (MSCs, and MLO-A5 osteocytes), tumor selectivity for Lrp5 CM, Akt CM, Calr, and Ppib (FIG. 22) was determined. […] Akt CM also presented the tumor selectivity of 2.41±0.70.

B1: HSF1: HSF1 recombinant proteins (protein, UniProt P38532 1-525, looked up)
Heat shock factor protein 1: MDLAVGPGAAGPSNVPAFLTKLWTLVSDPDTDALICWSPSGNSFHVFDQGQFAKEVLPKYFKHNNMASFVRQLNMYGFRKVVHIEQGGLVKPERDDTEFQHPCFLRGQEQLLENIKRKVTSVSTLKSEDIKIRQDSVTRLLTDVQLMKGKQECMDSKLLAMKHENEALWREVASLRQKHAQQQKVVNKLIQFLISLVQSNRILGVKRKIPLMLSDSNSAHSVPKYGRQYSLEHVHGPGPYSAPSPAYSSSSLYSSDAVTSSGPIISDITELAPTSPLASPGRSIDERPLSSSTLVRVKQEPPSPPHSPRVLEASPGRPSSMDTPLSPTAFIDSILRESEPTPAASNTAPMDTTGAQAPALPTPSTPEKCLSVACLDKNELSDHLDAMDSNLDNLQTMLTSHGFSVDTSALLDLFSPSVTMPDMSLPDLDSSLASIQELLSPQEPPRPIEAENSNPDSGKQLVHYTAQPLFLLDPDAVDTGSSELPVLFELGESSYFSEGDDYTDDPTISLLTGTEPHKAKDPTVS
- MTT-based viability of 4T1.2 cells [1]: reduced

B2: CXCL5: chemokine applied to EO771 cells (protein, UniProt P50228 41-132, looked up)
C-X-C motif chemokine 5: APSSVIAATELRCVCLTVTPKINPKLIANLEVIPAGPQCPTVEVIAKLKNQKEVCLDPEAPVIKKIIQKILGSDKKKAKRNALAVERTASVQ
- tumor-promoting/tumorigenic proteins (Lrp5, MMP9, Runx2, TGFβ, Snail, IL1β etc.) in EO771 cells [2]: increased

B3: Calr: recombinant calreticulin (protein, UniProt P14211 18-416, looked up)
Calreticulin: DPAIYFKEQFLDGDAWTNRWVESKHKSDFGKFVLSSGKFYGDLEKDKGLQTSQDARFYALSAKFEPFSNKGQTLVVQFTVKHEQNIDCGGGYVKLFPSGLDQKDMHGDSEYNIMFGPDICGPGTKKVHVIFNYKGKNVLINKDIRCKDDEFTHLYTLIVRPDNTYEVKIDNSQVESGSLEDDWDFLPPKKIKDPDAAKPEDWDERAKIDDPTDSKPEDWDKPEHIPDPDAKKPEDWDEEMDGEWEPPVIQNPEYKGEWKPRQIDNPDYKGTWIHPEIDNPEYSPDANIYAYDSFAVLGLDLWQVKSGTIFDNFLITNDEAYAEEFGNETWGVTKAAEKQMKDKQDEEQRLKEEEEDKKRKEEEEAEDKEDDDDRDEDEDEEDEKEEDEEESPGQAKDEL
- EdU-based proliferation of 4T1.2 cells [3]: significantly inhibited
- TRANSWELL invasion of 4T1.2 cells [4]: significantly inhibited
- MTT-based viability of 4T1.2 cells [1]: Significant reduction
- phosphorylation level of eIF2α in 4T1.2 cells [5]: elevated
- tumor-promoting genes (Lrp5, MMP9, Runx2, TGFβ, Snail) in 4T1.2 cells ([5]; Western blot): suppressed
- tumor selectivity [6]: higher tumor selectivity than Ppib

B4: ANXA6: annexin A6 (protein, UniProt P14824 2-673, looked up)
Annexin A6: AKIAQGAMYRGSVHDFPEFDANQDAEALYTAMKGFGSDKESILELITSRSNKQRQEICQNYKSLYGKDLIEDLKYELTGKFERLIVNLMRPLAYCDAKEIKDAISGVGTDEKCLIEILASRTNEQMHQLVAAYKDAYERDLESDIIGDTSGHFQKMLVVLLQGTRENDDVVSEDLVQQDVQDLYEAGELKWGTDEAQFIYILGNRSKQHLRLVFDEYLKTTGKPIEASIRGELSGDFEKLMLAVVKCIRSTPEYFAERLFKAMKGLGTRDNTLIRIMVSRSELDMLDIREIFRTKYEKSLYSMIKNDTSGEYKKALLKLCGGDDDAAGQFFPEAAQVAYQMWELSAVSRVELKGTVCAANDFNPDADAKALRKAMKGIGTDEATIIDIVTHRSNAQRQQIRQTFKSHFGRDLMADLKSEISGDLARLILGLMMPPAHYDAKQLKKAMEGAGTDEKTLIEILATRTNAEIRAINEAYKEDYHKSLEDALSSDTSGHFRRILISLATGNREEGGENRDQAQEDAQVAAEILEIADTPSGDKTSLETRFMTVLCTRSYPHLRRVFQEFIKKTNYDIEHVIKKEMSGDVKDAFVAIVQSVKNKPLFFADKLYKSMKGAGTDEKTLTRVMVSRSEIDLLNIRREFIEKYDKSLHQAIEGDTSGDFMKALLALCGGED
- tumor-promoting/tumorigenic proteins (Lrp5, MMP9, Runx2, TGFβ, Snail, IL1β etc.) in EO771 cells [2]: reduced

From US20240165165A1, “PHARMACEUTICAL COMPOSITIONS AND THEIR METHODS OF USE” (The Trustees of Indiana University, priority 2021, published 2024)
